What all share (assay): PELDOR/DEER EPR; MTSSL-labelled protein reconstituted in soybean phosphatidylcholine liposomes (1:20 protein/lipid), 50 mM KPi pH 8.0, spin concentration 80-130 µM, 20% deuterated glycerol, Q-band, 50 K; monomer to dimer
The target of experiment [1] is SLC26Dg K353R1 (single-cysteine mutant K353C labelled with MTSSL) (Deinococcus geothermalis).
Experiment [2] deals with SLC26Dg L385R1 (single-cysteine mutant L385C labelled with MTSSL) (Deinococcus geothermalis).
The target of experiment [3] is SLC26Dg V367R1 (single-cysteine mutant V367C labelled with MTSSL) (Deinococcus geothermalis).

Take “SLC26Dg K353R1 (single-cysteine mutant K353C labelled with MTSSL) (natural protein)”: in experiment [1], the stoichiometry N (commonly a count of units in the complex or per binding partner) was 2.

“SLC26Dg L385R1 (single-cysteine mutant L385C labelled with MTSSL) (natural protein)” returned a stoichiometry N in experiment [2] of 2.

For the substance “SLC26Dg V367R1 (single-cysteine mutant V367C labelled with MTSSL) (natural protein)”, the stoichiometry N in experiment [3] worked out at 2.

(Values after paper PMC6497670.)
